Experiments:
[1] = molecular target: T1, hepatitis A virus (HAV) full particle, genotype TZ84 (HAV IA genotype) (hepatitis A virus, genotype TZ84 (HAV …)); assay: SPR
T1 chain 1: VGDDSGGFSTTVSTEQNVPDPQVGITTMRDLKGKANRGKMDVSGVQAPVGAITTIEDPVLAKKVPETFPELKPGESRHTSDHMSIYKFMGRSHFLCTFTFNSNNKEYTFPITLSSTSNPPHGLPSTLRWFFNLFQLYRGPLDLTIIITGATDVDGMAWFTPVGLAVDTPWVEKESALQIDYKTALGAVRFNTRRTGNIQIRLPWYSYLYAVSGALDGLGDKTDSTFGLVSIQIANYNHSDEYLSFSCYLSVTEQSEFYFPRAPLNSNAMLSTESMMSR
T1 chain 2: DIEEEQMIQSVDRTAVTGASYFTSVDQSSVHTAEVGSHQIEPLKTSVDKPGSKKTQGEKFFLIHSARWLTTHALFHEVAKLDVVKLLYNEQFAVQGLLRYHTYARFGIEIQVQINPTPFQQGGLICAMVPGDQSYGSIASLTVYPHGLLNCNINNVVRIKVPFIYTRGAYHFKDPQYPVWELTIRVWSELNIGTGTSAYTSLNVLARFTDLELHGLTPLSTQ
T1 chain 3: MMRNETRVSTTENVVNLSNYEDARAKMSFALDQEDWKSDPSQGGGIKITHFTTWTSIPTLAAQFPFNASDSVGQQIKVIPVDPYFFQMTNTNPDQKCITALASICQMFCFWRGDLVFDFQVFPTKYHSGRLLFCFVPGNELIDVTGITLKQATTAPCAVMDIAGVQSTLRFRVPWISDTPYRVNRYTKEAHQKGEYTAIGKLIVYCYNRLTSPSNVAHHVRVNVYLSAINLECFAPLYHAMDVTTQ

[2] = molecular target: T1, hepatitis A virus (HAV) full particle, …; assay: SPR

B1: F6 Fab (fragment of antigen binding of the neutralizing monoclonal antibody F6) (Fab, V domains shown)
VH: EVKLVESGGGLVKPGGSLKLSCAASMYNFQHYGMSWVRQTPEKRLEWVATIQTNATYTYYPDSVKGRFTISRDNARNILYLQMSSLRSGDTAMYYCARRDNIECHYYFDYWGQGTTLTVSS
VL: DIVLTQSPAIMSASPGERVTMTCSAHQYVSYMHWYQQKSGTSPKRWIYDTSRLADAIPQRFSGRGSGTSYSLTISSMEAEDAATYYCQQWQSNPYTFGGGTKLEIK
koff [1]: 0.000134 s⁻¹
Kd [2]: 2.19 nM

B2: F4 Fab (fragment of antigen binding of the neutralizing monoclonal antibody F4) (Fab, V domains shown)
VH: EVKLVESGGGLVKPGGSLKLSCAASLFTHNNYGMSWVRQTPEKRLEWVATINSTASYTYYPDSVKGRFTISRDNAKNTLYLQMSSLRSGDTAIYYCARKNDTFSDYYFDYWGQGTTLTVSS
VL: DIVLTQSPAIMSASPGERVTMTCSAHVSTDYMHWYQQKSGTSPKRWIYDTSKLASTVPDRFSGSGSGTSYSLTISSMEAEDAATYYCQQWNNNAYTYGGGTKLEIK
koff [1]: 0.000252 s⁻¹
Kd [2]: 5.14 nM

B3: F9 Fab (fragment of antigen binding of the neutralizing monoclonal antibody F9) (Fab, V domains shown)
VH: EVKLVESGGGLVKPGGSLKLSCAASAFTITTYGMSWVRQTPEKRLEWVATITAGGSYTYYPDSVKGRFTISRDNAKNTLYLQMSSLRSGDTAMYYCARKVTSVAEYYFDYWGQGTTLTVSS
VL: DIVLTQSPAIMSASPGEKVTMTCSATSGLSYIHWYQQKSGTSPKRWIYDTSKLAFGAPARFSGSGSGTSYSLTISSMEAEDAATYYCQQWDVNPYTFGGGTKLEIK
koff [1]: 0.000537 s⁻¹
Kd [2]: 7.18 nM

B4: R10 Fab (fragment of antigen binding of the neutralizing monoclonal antibody R10) (Fab, V domains shown)
VH: EVKLVESGGGSVKPGGSLKLSCAASGFSFSTYGMSWVRQTPEKRLEWVATISGGGGYTYYPDSVKGRFTISRDNARNILYLQMSSLRSGDTAMYYCARRVTTVAEYYFDYWGQGTTLTVSS
VL: DIVLTQSPAIMSASPGEKVTMTCSASSSVSYIHWYQQKSGTSPKRWIYDTSRLAFGVPGRFSGSGSGTSYSLTISSMEAEDAATYYCQQWSSNYTFGGGTNLEIK
koff [1]: 0.000528 s⁻¹
Kd [2]: 8.13 nM

B5: F7 Fab (fragment of antigen binding of the neutralizing monoclonal antibody F7) (Fab, V domains shown)
VH: EVKLVESGGGLVKPGGSLKLSCAASIHTFNCYGMSWVRQTPEKGLEWVATIDAASSYTYYPDSVKGRFTISRDNAKNTLYLQMSSLRSGDTAMYYCARRDNTTAQYYFDYWGQGTTLTVSS
VL: DIVLTQSPAIMSASPGEKVTMTCSAASSVSYIHWYQQKSGTSPKRWIYDTSRLAFGVPTRFSGSGSGTSYSLTISSMEAEDAATYYCQQWSTNPYTFGGGTKLEIK
koff [1]: 0.000743 s⁻¹
Kd [2]: 7.1 nM

— publication PMC6493668 (2019)
